In PMC7141649 one finds Kd data, which are given here for one substance.

By Kd is commonly meant the free concentration of one partner at which half of the binding sites on the other are occupied at equilibrium, for simple one-to-one binding. Lower therefore signals higher affinity.

For this experiment, the target named is actin (coated on the BLI biosensor). Nature of the experiment: BLI; Octet RED, 25°C; APS biosensor coated with actin; rWLP (1 mM) in PBS pH 7.4 with 0.05% Tween 20 and 0.1% BSA; 300 s association, 120 s dissociation. Background: BLI is a label-free optical method that tracks binding on a fibre tip over time.

The substance “recombinant whirlin-like protein (as used in biolayer interferometry) (natural protein)” showed a Kd of 0.193 µM.
